# Test results reported in article PMC8906542.
# Residue numbers refer to the chain shown, from its start.
# T1: ErmE R163E (Saccharopolyspora erythraea, UniProt P07287 1-381, R163E)
# T1 sequence: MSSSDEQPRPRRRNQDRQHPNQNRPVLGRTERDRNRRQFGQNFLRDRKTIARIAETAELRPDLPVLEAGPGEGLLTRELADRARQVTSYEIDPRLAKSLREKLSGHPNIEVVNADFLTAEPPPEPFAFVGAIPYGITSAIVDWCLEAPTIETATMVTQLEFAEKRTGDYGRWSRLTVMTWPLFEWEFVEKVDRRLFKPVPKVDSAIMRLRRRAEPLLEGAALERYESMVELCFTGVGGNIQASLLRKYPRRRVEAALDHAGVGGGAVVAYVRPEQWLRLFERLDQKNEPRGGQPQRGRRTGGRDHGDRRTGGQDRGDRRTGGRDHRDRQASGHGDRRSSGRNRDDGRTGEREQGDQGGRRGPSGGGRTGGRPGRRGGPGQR
# T2: ErmE R165A (Saccharopolyspora erythraea, UniProt P07287 1-381, R165A)
# T2 sequence: T1 sequence with E163R, R165A
# T3: ErmE E160W (Saccharopolyspora erythraea, UniProt P07287 1-381, E160W)
# T3 sequence: T1 sequence with E160W, E163R
# T4: ErmE K164S (Saccharopolyspora erythraea, UniProt P07287 1-381, K164S)
# T4 sequence: T1 sequence with E163R, K164S
# T5: ErmE K164M (Saccharopolyspora erythraea, UniProt P07287 1-381, K164M)
# T5 sequence: T1 sequence with E163R, K164M
# T6: ErmE E160A (Saccharopolyspora erythraea, UniProt P07287 1-381, E160A)
# T6 sequence: T1 sequence with E160A, E163R
# Legend:
# Experiment in all cases: fluorescence polarization
# [1] = molecular target: T1, ErmE R163E
# [2] = molecular target: T2, ErmE R165A
# [3] = molecular target: T3, ErmE E160W
# [4] = molecular target: T4, ErmE K164S
# [5] = molecular target: T5, ErmE K164M
# [6] = molecular target: T6, ErmE E160A
binder,measurement,setting,value
"GGCCUGCGGCAAGACGGAAAGACCAUGGUCCCUAUCUGCCGCAGGAUC (structured_RNA) [V48 Erm substrate (23S rRNA helix 73 mimic, 48 nt)]",Kd,[1],3.7 µM
same,Kd,[2],0.49 ± 0.05 µM
same,binding signal,[3],~4 fold Kd increase vs wt
same,binding result,[4],binds
same,binding result,[5],binds
same,binding result,[6],binds
